Substrate: CC(C)(COP(=O)(O)OP(=O)(O)OC[C@H]1O[C@@H](n2cnc3c(N)ncnc32)[C@H](O)[C@@H]1OP(=O)(O)O)[C@@H](O)C(=O)NCCC(=O)NCCSC(=O)CC(=O)O
Assay: Carboxyltransferase inhibition, assayed in the reverse direction with coupled spectrophotometric detection
Type: biochemical, E. coli
Conditions: other: substrate of carboxyltransferase
Method: Carboxyltransferase was purified from a strain of E. coli that overexpresses the genes encoding the α and β subunits of the enzyme.
Carboxyltransferase was assayed in the reverse direction: the production of acetyl-CoA was detected by using the coupling enzymes malate dehydrogenase and citrate synthase, and the reduction of NAD^+ was measured spectrophotometrically by the method of C.
In Equations [1] and [2], v is the initial velocity, Vm is the maximal velocity, A is the substrate concentration, I is the concentration of inhibitor, Km is the Michaelis constant, Kis is the slope inhibition constant, and Kii is the intercept inhibition constant.
v=VmA/(Km(1+I/Kis)+A(1+I/Kii)) [2]
The activity of carboxyltransferase was measured in the reverse direction using malonyl-CoA and biocytin as substrates.

B1: carboxyltransferase component of E. coli acetyl-CoA carboxylase (Escherichia coli K-12) (protein)
chain 1: MSLNFLDFEQPIAELEAKIDSLTAVSRQDEKLDINIDEEVHRLREKSVELTRKIFADLGAWQIAQLARHPQRPYTLDYVRLAFDEFDELAGDRAYADDKAIVGGIARLDGRPVMIIGHQKGRETKEKIRRNFGMPAPEGYRKALRLMQMAERFKMPIITFIDTPGAYPGVGAEERGQSEAIARNLREMSRLGVPVVCTVIGEGGSGGALAIGVGDKVNMLQYSTYSVISPEGCASILWKSADKAPLAAEAMGIIAPRLKELKLIDSIIPEPLGGAHRNPEAMAASLKAQLLADLADLDVLSTEDLKNRRYQRLMSYGYA
chain 2: MSWIERIKSNITPTRKASIPEGVWTKCDSCGQVLYRAELERNLEVCPKCDHHMRMTARNRLHSLLDEGSLVELGSELEPKDVLKFRDSKKYKDRLASAQKETGEKDALVVMKGTLYGMPVVAAAFEFAFMGGSMGSVVGARFVRAVEQALEDNCPLICFSASGGARMQEALMSLMQMAKTSAALAKMQERGLPYISVLTDPTMGGVSASFAMLGDLNIAEPKALIGFAGPRVIEQTVREKLPPGFQRSEFLIEKGAIDMIVRRPEMRLKLASILAKLMNLPAPNPEAPREGVVVPPVPDQEPEA
notes: made in house; host or cells: E. coli overexpression strain (Blanchard et al. 1998; G. Waldrop, LSU)
Q: For B1, which Km is on record?
A: The Km was 0.1 mM.

From patent US6485941B1, “Inhibition of the carboxyltransferase component of acetyl-CoA carboxylase, and the use of such inhibition in anti-cancer and anti-lipogenic therapies” (Board of Supervisors of Louisiana State University and …, priority 2002, dated 2002)
